Reference: paper PMC5904244, “Oligomeric states in sodium ion-dependent regulation of cyanobacterial histidine kinase-2” (Protoplasma, 2017)
Several values for one entry are separate records, joined by “and”; a condition that tells them apart may be missing. Equal entries are not always repeated.

What was measured:
[1] = molecular target: the molecule itself; assay: SEC; Superdex 200 10/300GL, 20 mM Tris-HCl pH 7.6, 10 mM NaCl (low salt); apparent molecular masses from a calibration curve
[2] = molecular target: the molecule itself; assay: SEC; Superdex 200 10/300GL, 20 mM Tris-HCl pH 7.6, 500 mM NaCl (high salt); apparent molecular masses from a calibration curve
[3] = molecular target: the molecule itself; assay: negative-stain transmission electron microscopy, single-particle analysis; dilution series on carbon-coated grids, 2% uranyl acetate; class averages assigned subjectively to oligomeric families; buffer and salt not stated
[4] = molecular target: the molecule itself; assay: cross-linking; DSP (1-11 mM; 2 mM in later experiments), 2-50 uM Hik2, 25 mM HEPES-NaOH pH 7.5, 5 mM KCl, 5 mM MgCl2, 23 °C, 10 min; no NaCl treatment; non-reducing 10% SDS-PAGE, Coomassie

Protein | stoichiometry N [1] | stoichiometry N [2] | stoichiometry N [3] | stoichiometry N [4]
full-length Thermosynechococcus elongatus BP-1 Hik2 (enzyme, UniProt Q8DMC5 1-385, looked up, Histidine kinase 2 (Hik2), tlr0195, Thermosynechococcus elongatus BP-1, full length; calculated molecular mass 44.2 kDa; The forward primer has catatgATG, so one extra N-terminal Met may be present; A C-terminal His tag from the vector is surmised) MLWPASEEFAALCRTQLELVVNSLGASSLAVYLSETLNDSPSWSPVAVYPEAASLLSLAIPPTLPPPTQVPETSLSHYPQQVVSSLANQLILPLMYQNWVLGVLVAQRQHRPWLAAEQAQLQQVAQTLAIACVLDQRQQWLSHSPAQPLDQRQQRFDDLLHQLRNPVAAIRTFVKLLLKRLEPDHKGRPLAEGIAKETERLMALLEDYRQQRNDIPALTGSQPLPLAGKPLDLAETLLPLISAAQARAEMEGKTFVVEIPPQLPPIWLEERVLQEVVGNLLDNAFKYTPKGGTIGLRLMLSSPALELTVWDTGCGIPKEAQPRLFERGYRGVQADSGIEGSGLGLAIAQDLLRPYGLSLRVTSPYAGDRGTAFTLAIPWQMKVEP | 6 | 4 |  | 
full-length Synechocystis sp. PCC 6803 histidine kinase 2 (Hik2) (enzyme, UniProt P73276 1-434, looked up, Histidine kinase 2 (Hik2), slr1147, Synechocystis sp; PCC 6803, full length; calculated molecular mass 48.5 kDa) MAGSISSMYSPSAGLISLCQSQVRLLQQGLRVDWCGVYLNQEETEQGLVPLVVSHGSTLVESESYGLISLPQGEVSPPMDDFSLPAVPVGVGQLSRRSRLEPPPFDADKRLVLPLVYGEEMVGLLVIHRSQGQWHGEEMMQLEAIAKSLAVACLLDQQQDWYRQAWEEQNQQYQWERQHWADLLHQLRNPLTALKTFSKLLLKRWHGDNKSQQVVEGIVRQGEHLQELLQSFEASQSQGPEAVPLLSSSPVTTIQVLPPADRVETMPLANFSLGEVLPPILLAHQAIAAERNITLTAQIALIDTVVMANRLALREVVNNLLDNGIKYTPNGGLVEVSLALEKVSSSGMDWATLAIADTGYGIPPEDQQKIFERNYRGVQGRGSINGTGLGLAIVADLVAQMGGKITVTSPNGLSRDPDQPGSTFTLWLRSGEQV |  |  | 2 and 3 | 4 and 6 and 8
truncated core kinase domain of Thermosynechococcus elongatus BP-1 Hik2 containing only the DHp and CA subdomains (domain or fragment, UniProt Q8DMC5 142-385, looked up, Hik2 (tlr0195), Thermosynechococcus elongatus BP-1, kinase domain (DHp and CA), amino acids 142-386; calculated molecular mass 26.2 kDa; The forward primer has catatgATG, so added N-terminal Met residues are likely; A C-terminal His tag from the vector is surmised) SHSPAQPLDQRQQRFDDLLHQLRNPVAAIRTFVKLLLKRLEPDHKGRPLAEGIAKETERLMALLEDYRQQRNDIPALTGSQPLPLAGKPLDLAETLLPLISAAQARAEMEGKTFVVEIPPQLPPIWLEERVLQEVVGNLLDNAFKYTPKGGTIGLRLMLSSPALELTVWDTGCGIPKEAQPRLFERGYRGVQADSGIEGSGLGLAIAQDLLRPYGLSLRVTSPYAGDRGTAFTLAIPWQMKVEP | 6 | 4 |  | 
truncated DHp domain of Thermosynechococcus elongatus BP-1 Hik2 (domain or fragment, UniProt Q8DMC5 142-270, looked up, Hik2 (tlr0195), Thermosynechococcus elongatus BP-1, DHp domain, amino acids 142-270; calculated molecular mass 15.1 kDa; The forward primer has catatgATG, so added N-terminal Met residues are likely; A C-terminal His tag from the vector is surmised) SHSPAQPLDQRQQRFDDLLHQLRNPVAAIRTFVKLLLKRLEPDHKGRPLAEGIAKETERLMALLEDYRQQRNDIPALTGSQPLPLAGKPLDLAETLLPLISAAQARAEMEGKTFVVEIPPQLPPIWLEE | 8 | 6 |  | 
